T1: GST-GDI1(3D), phosphomimetic form GDI1 S45D S48D T52D (Arabidopsis, UniProt Q9SFC6 1-240, S45D | S48D | T52D)
T1 sequence: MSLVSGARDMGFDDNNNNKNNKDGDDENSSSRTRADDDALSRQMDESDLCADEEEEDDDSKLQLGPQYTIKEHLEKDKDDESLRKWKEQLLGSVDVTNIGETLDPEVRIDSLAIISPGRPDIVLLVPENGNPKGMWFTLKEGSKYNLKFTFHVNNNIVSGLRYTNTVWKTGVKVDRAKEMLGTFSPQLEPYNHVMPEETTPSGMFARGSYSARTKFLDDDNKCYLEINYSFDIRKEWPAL

B1: His-ROP10 (natural protein)
chain: not shown
B2: His-ROP6 (natural protein)
chain: not shown
B3: His-ROP2 (natural protein)
chain: not shown

What follows are binders tested against T1, GST-GDI1(3D), phosphomimetic form GDI1 … (assay: pull-down).

**Q.** Does B1 bind?
**A.** binds

**Q.** Does B2 bind?
**A.** binds

**Q.** Does B3 bind?
**A.** binds

— paper PMC3733153 (Journal of Experimental Botany, 2013)
